Measured values published in patent US20190233486A1 (ACCELERON PHARMA, published 2019).

Assays:
activin A = biological target: T1, activin A (UniProt P08476 311-426); experiment: Biacore SPR; ligand coupled to the chip, receptor-Fc flowed over (data reproduced from WO2006/012627)
T1 construct: also called ActA
T1 sequence (looked up): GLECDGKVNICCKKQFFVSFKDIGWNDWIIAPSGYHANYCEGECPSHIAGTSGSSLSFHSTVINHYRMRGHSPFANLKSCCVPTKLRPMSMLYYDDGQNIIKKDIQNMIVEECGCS

GDF11 = biological target: T2, GDF11 (UniProt O95390 299-407); experiment: as above
T2 construct: also called growth and differentiation factor-11; BMP11
T2 sequence (looked up): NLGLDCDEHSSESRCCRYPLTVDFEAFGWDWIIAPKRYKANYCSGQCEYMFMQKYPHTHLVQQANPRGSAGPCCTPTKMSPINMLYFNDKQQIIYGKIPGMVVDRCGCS

- Kd (activin A): 180 nM
- Kd (GDF11): 260 nM
B1: Soluble ActRIIB-Fc WT (64A) (Fc fusion, not shown: a dimerising Fc or GST)
chain: GRGEAETRECIYYNANWELERTNQSGLERCEGEQDKRLHCYASWANSSGTIELVKKGCWLDDFNCYDRQECVATEENPQVYFCCCEGNFCNERFTHLPEA
notes: Data reproduced from WO2006/012627
